From patent US20110052582A1 (Hoffmann-La Roche, published 2011)

T1: Soluble CDCP1 extracellular domain (CDCP1-ECD) (SEQ ID NO:30) fused to Streptavidin Binding Protein (SBP) (human, UniProt Q9H5V8 30-663)
T1 construct: also called SBP-CDCP1-ECD
T1 sequence: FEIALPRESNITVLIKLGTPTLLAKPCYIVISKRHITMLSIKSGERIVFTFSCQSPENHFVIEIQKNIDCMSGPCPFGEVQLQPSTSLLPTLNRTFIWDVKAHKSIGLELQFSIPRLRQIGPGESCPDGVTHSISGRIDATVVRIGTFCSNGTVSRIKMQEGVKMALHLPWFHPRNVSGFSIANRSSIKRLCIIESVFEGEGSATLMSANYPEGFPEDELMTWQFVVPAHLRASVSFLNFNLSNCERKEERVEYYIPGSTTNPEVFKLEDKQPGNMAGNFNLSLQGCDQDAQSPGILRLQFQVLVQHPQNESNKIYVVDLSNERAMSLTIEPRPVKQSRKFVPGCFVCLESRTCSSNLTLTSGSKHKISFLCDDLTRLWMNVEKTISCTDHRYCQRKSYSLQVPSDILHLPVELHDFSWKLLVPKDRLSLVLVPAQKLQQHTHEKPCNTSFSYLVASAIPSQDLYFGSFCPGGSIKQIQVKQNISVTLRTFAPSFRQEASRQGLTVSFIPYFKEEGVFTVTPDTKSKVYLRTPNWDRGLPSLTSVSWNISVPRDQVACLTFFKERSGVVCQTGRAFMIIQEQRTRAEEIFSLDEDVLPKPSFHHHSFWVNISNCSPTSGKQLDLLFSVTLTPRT


target: T1, Soluble CDCP1 extracellular domain …; assay: ELISA on captured SBP-CDCP1-ECD, ratio relative to chimeric CUB4 (chHC4)
Method in brief: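 Streptavidin plates coated overnight at 2–8° C with SBP-CDCP1-ECD HEK293 supernatant (1:15–1:40). Antibodies, undiluted or 12-step dilution, bound 90 min at room temperature; HRP anti-human IgG 1 h, ABTS read at 405/492 nm, signal expressed relative to chimeric chHC4 reference.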

Binder	relative binding ratio	binding result
hHC4-a / hLC4-d (antibody, V domains shown) VH: EVQLVESGGGLVKPGGSLRLSCAASGFTFNSYGMSWVRQAPGKGLEWVSTISSGGSYTYYPDSVKGRFTISRDNAKNSLYLQMNSLRAEDTAVYYCARHPDYDGVWFAYWGQGTLVTVSS VL: EIVMTQSPATLSVSPGERATLSCSVSSSVFYVHWYQQKPGQAPRLLIYDTSKLASGIPARFSGSGSGTEYTLTISSLQSEDFAVYYCQQWNSNPPTFGGGTKVEIK	0.28	
hHC4-b / hLC4-K (antibody, V domains shown) VH: EVQLVESGGGLVKPGGSLRLSCAASGFTFNSYSMNWVRQAPGKGLEWVSSISSGGSYIYYADSVKGRFTISRDNAKNSLYLQMNSLRAEDTAVYYCARHPDYDGVWFAYWGQGTLVTVSS VL: EIVLTQSPATLSLSPGERATLSCRASSSVFYLHWYQQKPGQAPRLWIYDTSKLASGIPARFSGSGSGTDFTLTISSLEPEDFAVYYCQQWNSNPPTFGGGTKVEIK		no binding
hHC4-b / hLC4-L2 (antibody, V domains shown) VH: EVQLVESGGGLVKPGGSLRLSCAASGFTFNSYSMNWVRQAPGKGLEWVSSISSGGSYIYYADSVKGRFTISRDNAKNSLYLQMNSLRAEDTAVYYCARHPDYDGVWFAYWGQGTLVTVSS VL: EIVLTQSPATLSLSPGERATMSCSVSSSVFYLHWYQQKPGQAPRLWIYDTSKLASGIPARFSGSGSGTDFTLTISSLEPEDFAVYYCQQWNSNPPTFGGGTKVEIK		no binding
hHC4-c / hLC4-a (antibody, V domains shown) VH: EVQLVESGGGLVQPGGSLRLSCAASGFTFNSYGMSWVRQAPGKGLEWVATISSGGSYTYYPDSVKGRFTISRDNAKNSLYLQMNSLRAEDTAVYYCARHPDYDGVWFAYWGQGTLVTVSS VL: EIVLTQSPATLSLSPGERATLSCSVSSSVFYVHWYQQKPGQAPRLLIYDTSKLASGIPARFSGSGSGTDFTLTISSLEPEDFAVYYCQQWNSNPPTFGGGTKVEIK	0.34	
hHC4-b / hLC4-J (antibody, V domains shown) VH: EVQLVESGGGLVKPGGSLRLSCAASGFTFNSYSMNWVRQAPGKGLEWVSSISSGGSYIYYADSVKGRFTISRDNAKNSLYLQMNSLRAEDTAVYYCARHPDYDGVWFAYWGQGTLVTVSS VL: EIVMTQSPATLSLSPGERATMSCRASSSVFYLHWYQQKPGQAPRLWIYDTSKLASGIPARFSGSGSGTDFTLTISSLQPEDFAVYYCQQWNSNPPTFGGGTKVEIK		no binding
hHC4-c / hLC4-K (antibody, V domains shown) VH: EVQLVESGGGLVQPGGSLRLSCAASGFTFNSYGMSWVRQAPGKGLEWVATISSGGSYTYYPDSVKGRFTISRDNAKNSLYLQMNSLRAEDTAVYYCARHPDYDGVWFAYWGQGTLVTVSS VL: EIVLTQSPATLSLSPGERATLSCRASSSVFYLHWYQQKPGQAPRLWIYDTSKLASGIPARFSGSGSGTDFTLTISSLEPEDFAVYYCQQWNSNPPTFGGGTKVEIK	0.83	
hHC4-c / hLC4-L2 (antibody, V domains shown) VH: EVQLVESGGGLVQPGGSLRLSCAASGFTFNSYGMSWVRQAPGKGLEWVATISSGGSYTYYPDSVKGRFTISRDNAKNSLYLQMNSLRAEDTAVYYCARHPDYDGVWFAYWGQGTLVTVSS VL: EIVLTQSPATLSLSPGERATMSCSVSSSVFYLHWYQQKPGQAPRLWIYDTSKLASGIPARFSGSGSGTDFTLTISSLEPEDFAVYYCQQWNSNPPTFGGGTKVEIK	0.53	
hHC4-c / hLC4-d (antibody, V domains shown) VH: EVQLVESGGGLVQPGGSLRLSCAASGFTFNSYGMSWVRQAPGKGLEWVATISSGGSYTYYPDSVKGRFTISRDNAKNSLYLQMNSLRAEDTAVYYCARHPDYDGVWFAYWGQGTLVTVSS VL: EIVMTQSPATLSVSPGERATLSCSVSSSVFYVHWYQQKPGQAPRLLIYDTSKLASGIPARFSGSGSGTEYTLTISSLQSEDFAVYYCQQWNSNPPTFGGGTKVEIK	0.36	
hHC4-b / hLC4-b (antibody, V domains shown) VH: EVQLVESGGGLVKPGGSLRLSCAASGFTFNSYSMNWVRQAPGKGLEWVSSISSGGSYIYYADSVKGRFTISRDNAKNSLYLQMNSLRAEDTAVYYCARHPDYDGVWFAYWGQGTLVTVSS VL: EIVLTQSPATLSLSPGERATLSCSVSSSVFYVHWYQQKPGQAPRLLIYDTSKLASGIPARFSGSGSGTDYTLTISSLEPEDFAVYYCQQWNSNPPTFGGGTKVEIK		no binding
hHC4-b / hLC4-M (antibody, V domains shown) VH: EVQLVESGGGLVKPGGSLRLSCAASGFTFNSYSMNWVRQAPGKGLEWVSSISSGGSYIYYADSVKGRFTISRDNAKNSLYLQMNSLRAEDTAVYYCARHPDYDGVWFAYWGQGTLVTVSS VL: EIVLTQSPATLSLSPGERATMSCGASSSVFYLHWYQQKPGLAPRLWIYDTSKLASGIPDRFSGSGSGTDFTLTISRLEPEDFAVYYCQQWNSNPPTFGGGTKVEIK		no binding
hHC4-c / hLC4-c (antibody, V domains shown) VH: EVQLVESGGGLVQPGGSLRLSCAASGFTFNSYGMSWVRQAPGKGLEWVATISSGGSYTYYPDSVKGRFTISRDNAKNSLYLQMNSLRAEDTAVYYCARHPDYDGVWFAYWGQGTLVTVSS VL: EIVMTQSPATLSVSPGERATLSCSVSSSVFYVHWYQQKPGQAPRLLIYDTSKLASGIPARFSGSGSGTEFTLTISSLQSEDFAVYYCQQWNSNPPTFGGGTKVEIK	0.29	

Now from value to binder:

relative binding ratio	binding result	Binder
0.71		hHC4-c / hLC4-M (antibody, V domains shown) VH: EVQLVESGGGLVQPGGSLRLSCAASGFTFNSYGMSWVRQAPGKGLEWVATISSGGSYTYYPDSVKGRFTISRDNAKNSLYLQMNSLRAEDTAVYYCARHPDYDGVWFAYWGQGTLVTVSS VL: EIVLTQSPATLSLSPGERATMSCGASSSVFYLHWYQQKPGLAPRLWIYDTSKLASGIPDRFSGSGSGTDFTLTISRLEPEDFAVYYCQQWNSNPPTFGGGTKVEIK
	no binding	hHC4-b / hLC4-a (antibody, V domains shown) VH: EVQLVESGGGLVKPGGSLRLSCAASGFTFNSYSMNWVRQAPGKGLEWVSSISSGGSYIYYADSVKGRFTISRDNAKNSLYLQMNSLRAEDTAVYYCARHPDYDGVWFAYWGQGTLVTVSS VL: EIVLTQSPATLSLSPGERATLSCSVSSSVFYVHWYQQKPGQAPRLLIYDTSKLASGIPARFSGSGSGTDFTLTISSLEPEDFAVYYCQQWNSNPPTFGGGTKVEIK
0.42		hHC4-c / hLC4-J (antibody, V domains shown) VH: EVQLVESGGGLVQPGGSLRLSCAASGFTFNSYGMSWVRQAPGKGLEWVATISSGGSYTYYPDSVKGRFTISRDNAKNSLYLQMNSLRAEDTAVYYCARHPDYDGVWFAYWGQGTLVTVSS VL: EIVMTQSPATLSLSPGERATMSCRASSSVFYLHWYQQKPGQAPRLWIYDTSKLASGIPARFSGSGSGTDFTLTISSLQPEDFAVYYCQQWNSNPPTFGGGTKVEIK
	no binding	hHC4-b / hLC4-I (antibody, V domains shown) VH: EVQLVESGGGLVKPGGSLRLSCAASGFTFNSYSMNWVRQAPGKGLEWVSSISSGGSYIYYADSVKGRFTISRDNAKNSLYLQMNSLRAEDTAVYYCARHPDYDGVWFAYWGQGTLVTVSS VL: EIVMTQSPATLSLSPGERATLSCRASSSVFYLSWYQQKPGQAPRLWIYDTSKLASGIPARFSGSGSGTDFTLTISSLQPEDFAVYYCQQWNSNPPTFGGGTKVEIK
0.28		hHC4-c / hLC4-b (antibody, V domains shown) VH: EVQLVESGGGLVQPGGSLRLSCAASGFTFNSYGMSWVRQAPGKGLEWVATISSGGSYTYYPDSVKGRFTISRDNAKNSLYLQMNSLRAEDTAVYYCARHPDYDGVWFAYWGQGTLVTVSS VL: EIVLTQSPATLSLSPGERATLSCSVSSSVFYVHWYQQKPGQAPRLLIYDTSKLASGIPARFSGSGSGTDYTLTISSLEPEDFAVYYCQQWNSNPPTFGGGTKVEIK
	no binding	hHC4-b / hLC4-L (antibody, V domains shown) VH: EVQLVESGGGLVKPGGSLRLSCAASGFTFNSYSMNWVRQAPGKGLEWVSSISSGGSYIYYADSVKGRFTISRDNAKNSLYLQMNSLRAEDTAVYYCARHPDYDGVWFAYWGQGTLVTVSS VL: EIVLTQSPATLSLSPGERATMSCRASSSVFYLHWYQQKPGQAPRLWIYDTSKLASGIPARFSGSGSGTDFTLTISSLEPEDFAVYYCQQWNSNPPTFGGGTKVEIK
0.45		hHC4-c / hLC4-L (antibody, V domains shown) VH: EVQLVESGGGLVQPGGSLRLSCAASGFTFNSYGMSWVRQAPGKGLEWVATISSGGSYTYYPDSVKGRFTISRDNAKNSLYLQMNSLRAEDTAVYYCARHPDYDGVWFAYWGQGTLVTVSS VL: EIVLTQSPATLSLSPGERATMSCRASSSVFYLHWYQQKPGQAPRLWIYDTSKLASGIPARFSGSGSGTDFTLTISSLEPEDFAVYYCQQWNSNPPTFGGGTKVEIK
	no binding	hHC4-c / hLC4-I (antibody, V domains shown) VH: EVQLVESGGGLVQPGGSLRLSCAASGFTFNSYGMSWVRQAPGKGLEWVATISSGGSYTYYPDSVKGRFTISRDNAKNSLYLQMNSLRAEDTAVYYCARHPDYDGVWFAYWGQGTLVTVSS VL: EIVMTQSPATLSLSPGERATLSCRASSSVFYLSWYQQKPGQAPRLWIYDTSKLASGIPARFSGSGSGTDFTLTISSLQPEDFAVYYCQQWNSNPPTFGGGTKVEIK
